Data on 1 molecule can be found in patent publication EP3221371B1, “MONOLITHS” (Monolythix, Inc., priority 2014, dated 2016).

This assay has as its system alpha-lactalbumin. Put plainly: Monolith mediated proteolysis with covalently grafted proteinase K, HPLC. Conditions: 65 °C for 2 hrs plus 30 minutes; HPLC (Figure 4). Type of assay: biochemical. As for the experimental part: 160 mg/mL EDAC stock was dissolved in dry DMSO. 35 µL of this stock was added to 15 µL of 200 mM MES pH 7.0 and 20 µL 10mg/mL Proteinase K in PBS. The solution was added to a 20 mg disc carboxy monolith polymeric matrix (1:2:1 TEGDMA:EGDMA:HEMA plus 2.0% MAA). The disc was incubated for 1 hr at room temperature. The reaction was then quenched with 5 µL of 30 mg/mL glycine, pH 7.0 for 15 minutes at room temperature. The disc was then washed 3x in 1x PBS and held in 1X PBS for 4 days at 4 °C.
Alpha-lactalbumin substrate was dissolved at 10 mg/mL in 1x PBS. The proteinase K coupled disc was cut into equal 8 pie-shaped pieces. For each assay, one pie piece was placed point side down into a 0.5 mL microfuge tube. For each tube, 27 µL 10mg/mL lactalbumin solution or 1X PBS, 3 µL 5mM CaSO4, was added. The tubes were closed and incubated at 65 °C for 2 hrs. An additional 50 µL deionized distilled water, was added, the tubes closed, and incubated at 65 °C for an additional 30 minutes.

B1: proteinase K: Proteinase K covalently grafted with EDAC to carboxy monolith disc (1:2:1 TEGDMA:EGDMA:HEMA plus 2.0% MAA) (conjugate, UniProt P06873 106-384, looked up)
Proteinase K: AAQTNAPWGLARISSTSPGTSTYYYDESAGQGSCVYVIDTGIEASHPEFEGRAQMVKTYYYSSRDGNGHGTHCAGTVGSRTYGVAKKTQLFGVKVLDDNGSGQYSTIIAGMDFVASDKNNRNCPKGVVASLSLGGGYSSSVNSAAARLQSSGVMVAVAAGNNNADARNYSPASEPSVCTVGASDRYDRRSSFSNYGSVLDIFGPGTSILSTWIGGSTRSISGTSMATPHVAGLAAYLMTLGKTTAASACRYIADTANKGDLSNIPFGTVNLLAYNNYQA
modifications: EDAC-grafted to carboxy monolith disc
Turning to B1, the degradation of alpha-lactalbumin result is given as “fully degraded”.
